Reference: article PMC7876548, “Methylation of the D2 dopamine receptor affects binding with the human regulatory proteins Par-4 and Calmodulin” (microPublication Biology, 2021)
Square brackets hold non-standard residues; d marks the D form. Ends that are not written are not given here. * marks the point of attachment. K(5-FAM) = lysine labeled with 5-carboxyfluorescein (5-FAM), C-terminal, O=C(NCCCC[C@H](N*)C(=O)O)c1ccc2c(c1)C(=O)OC21c2ccc(O)cc2Oc2cc(O)ccc21; Arg(Me2s) = CN=C(NC)NCCC[C@H](N)C(=O)O

B1: unmethylated D2 peptide (amino acids 208-243 of the third intracellular loop of the human D2 receptor) (peptide)
peptide: VYIKIYIVLRRRRKRVNTKRSSRAFRAHLRAPLKGN-{K(5-FAM)}
notes: D2 dopamine receptor, human, amino acids 208-243 of the third intracellular loop; The C-terminal fluorophore is carried on an added lysine (K-5-FAM) after residue 243; source: synthetic peptide (21st Century Biochemicals); not shown: FLAG, N-terminal, kept
B2: methylated D2 peptide (amino acids 208-243 of the human D2 receptor, symmetrically dimethylated at Arg 217 and Arg 219) (peptide)
peptide: VYIKIYIVL[Arg(Me2s)]R[Arg(Me2s)]RKRVNTKRSSRAFRAHLRAPLKGN-{K(5-FAM)}
notes: D2 dopamine receptor, human, amino acids 208-243 of the third intracellular loop; Same peptide as m1 but with symmetric dimethylarginine at 217 and 219; The C-terminal fluorophore is carried on an added lysine (K-5-FAM); source: synthetic peptide (21st Century Biochemicals); not shown: FLAG, N-terminal, kept

Target: T1, human calmodulin (human, UniProt P0DP23 1-149)
T1 construct: Calmodulin, human; in pET-17b; Purification adapted from McCluskey et al. 2007; also called CaM; His-Calmodulin; source: Rosetta E. coli, purified (Ni-NTA, Phenyl-sepharose)
Assay: fluorescence polarisation; anisotropy; fluorescently labelled D2 peptide at 0.025 µM final, Par-4 or CaM added from 10x stocks of 0-20 µM; 200 mM NaCl, 200 µM CaCl2, 50 mM Tris pH 7.5; room temperature, ten minutes; average of four trials
Details: both partners purified

Kd [nM]	Binder
57.5	B1
136	B2
